B1: VPS39 (parent)
chain: LRLENNHCHIEESEHVLKKAHKYS
B2: TOR1AIP2 (parent)
chain: AGQEGEDTLRRRLLAPEAGSHPQQ

Variants of: B1
Test: protein stability index of a GFP-peptide fusion (GPS, HEK-293T) (PSI 1-6); higher = more stable
Settings: c terminus: a fixed tail appended
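Note: lentivirally expressed fusions sorted by FACS into six bins by GFP to DsRed ratio, PSI derived from sequencing read proportions per bin multiplied by bin number.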

Protein stability index, by site and new letter:
A20: N 2.38 | L 1.71 | S 2.19 | Q 1.45 | C 2.04 | V 2.52 | K 2.13 | W 2.25 | I 1.61 | H 2.3 | G 2.73 | F 2.24 | M 1.98 | R 2.11 | Y 1.92 | P 2.23 | T 2.43 | E 3.06 | D 2.73
E14: N 2.31 | V 2.9 | C 1.37 | I 1.88 | F 1.46 | G 2.56 | M 1.73 | D 2.12 | P 2.4 | W 2.67 | Y 1.88 | H 2.33 | R 2.06 | S 2.42 | A 2.38 | Q 2.1 | T 1.78 | L 2.16 | K 2.29
H15: R 2.86 | D 2.56 | Q 1.98 | M 3.02 | C 2.18 | N 3.07 | L 2.1 | S 2.64 | Y 2.41 | I 2.41 | E 2.6 | V 1.5 | W 2.09 | A 2.87 | T 2.71 | G 1.89 | P 2.34 | F 2.53 | K 2.74
L17: M 1.56 | N 2.48 | I 2.35 | S 2.84 | R 2.8 | C 2.65 | W 1.72 | T 3.14 | V 2.4 | E 2.88 | F 2.79 | H 1.55 | Q 2.4 | K 2.27 | G 2.84 | Y 2.55 | D 3.68 | A 1.83 | P 2.14
Y23: S 2.77 | P 2.56 | I 3.14 | N 3.05 | D 2.15 | Q 2.45 | C 2.25 | K 2.21 | H 3.13 | G 2.75 | L 2.7 | W 1.72 | F 2.28 | E 3.12 | R 2.25 | V 2.05 | M 2.17 | A 2.76 | T 2.4
I10: P 3.1 | M 2.34 | W 2.43 | L 1.9 | Y 2.57 | T 3.02 | V 2.68 | S 3.33 | H 3.17 | R 3.01 | Q 3 | K 3.33 | N 2.73
K22: M 1.62 | Q 2.12 | H 2.58 | C 2.02 | W 1.84 | D 3.15 | R 2.34 | E 2.4 | T 3.65 | I 1.65 | A 2.48 | S 2.51 | F 1.84 | N 2.44 | L 1.99 | V 2.57 | Y 2.55 | P 2.79 | G 2.96
E12: Y 3.21 | Q 2.15 | L 3.66 | S 2.61 | G 2.26 | A 2.19 | H 2.75 | R 2.14 | N 2.44 | F 1.24 | C 2.11 | P 1.93 | K 2.94 | D 3.1 | T 2.01 | M 2.68 | W 1.78 | I 1.96 | V 1.35
H21: N 2.68 | V 3.04 | W 2.12 | C 2.63 | T 2.27 | I 1.38 | Q 2.62 | M 1.81 | R 2 | E 2.78 | S 2.29 | A 3.18 | P 1.97 | G 2.5 | Y 2.25 | L 1.9 | K 2.4 | F 2.52 | D 2.73
S24: D 2.25 | G 2.84 | N 2.3 | K 2.09 | I 2.04 | V 1.83 | A 1.29 | Q 1.92 | T 2.07 | W 2.24 | M 2.18 | Y 2.28 | P 1.74 | H 2.65 | R 2.38 | E 3.82 | L 2.08 | F 2.37 | C 2.17
V16: W 1.49 | T 2.39 | I 2.29 | Y 1.9 | R 2.48 | A 3.01 | E 2.83 | P 3.07 | G 2.62 | K 2.49 | D 3.13 | Q 1.39 | M 1.97 | F 3.08 | S 2.65 | C 2.1 | N 2.38 | L 2.47 | H 2.02
K18: A 2.42 | Q 2.42 | V 2.54 | T 1.87 | Y 2.39 | S 1.91 | I 2.26 | F 2.09 | R 2.21 | W 1.27 | C 2.02 | L 1.88 | M 2.12 | H 2.17 | E 1.94 | N 2.6 | D 2.31 | P 1.85 | G 2.08
E11: V 1.97 | N 2.19 | F 1.75 | A 3.06 | Y 3.06 | C 1.99 | P 2.26 | L 2.86 | T 2.49 | R 3.35 | D 2.65 | K 2.79 | M 2.31 | H 2.52 | G 2.72 | S 3.04 | I 2.12 | W 2.75 | Q 2.06
K19: N 2.39 | W 1.34 | H 1.91 | P 2.41 | A 2.3 | M 2.52 | Q 2.51 | F 1.98 | C 2.24 | G 2.21 | D 2.59 | Y 2.67 | I 2.01 | S 2.1 | E 2.45 | R 2.37 | V 2.4 | L 1.52 | T 2.2
S13: T 2.37 | I 1.32 | K 2.92 | H 2.18 | L 1.95 | Y 2.75 | V 2.76 | R 2.15 | D 2.49 | E 2.26 | A 2.69 | G 2.56 | M 1.64 | N 2.12 | F 1.73 | P 2.63 | Q 1.82 | C 2.06 | W 1.01

Variants of: B2
Test: as above
Settings: c terminus: a fixed tail appended

Protein stability index: each site, then its substitutions
G2: E 2.74 | S 2.71 | V 1.67 | R 2.91 | Y 2.12 | W 2.45 | I 2.19 | Q 1.64 | D 5.64 | F 2.99 | K 3.32 | P 1.51 | H 3.58 | A 4.25 | N 3.23 | M 1.55 | C 1.6
A1: H 3.53 | R 2.29 | D 4.05 | Q 2.57 | W 3.19 | Y 2.26 | V 3.31 | L 2 | F 1.83 | G 3.25 | S 1.4 | N 2.5 | T 2.11 | K 2.54 | P 4.86 | E 4.54 | I 4.08
Q3: F 2.05 | D 3.76 | K 2.02 | I 1.55 | A 2.22 | W 2.14 | T 2.47 | S 2.31 | M 1.74 | P 2.92 | C 1.34 | Y 1.37 | V 2.27 | G 2.65 | L 2.47 | R 1.09 | N 1.82 | E 3.17
E4: C 2.16 | D 2.02 | F 1.79

Reference: the supplement of paper PMC10567573
